Measured values taken from patent publication US20220265772A1, “USES OF DAN FAMILY BMP ANTAGONISTS FOR INHIBITING OCULAR NEOVASCULARIZATION AND TREATING OCULAR CONDITIONS” (9636137 Canada Inc., priority 2019, published 2022).

How the values were obtained:
[1] = system: HUVECs; test: VEGF-induced tube formation (sprouting assay) of HUVECs in 3D fibrin gels; format: cell-based, human; details: for VEGF-induced tube formation: HUVECs in fibrin gel, 25 ng/ml VEGF, DAND5 0, 15, 30 or 60 ng/ml
Description: Sprouting assays were performed as previously described (2). Briefly, HUVECs (250,000 cells/well in 6-well plates) were resuspended in 300 μl fibrinogen solution (2.5 mg/ml fibrinogen, Sigma-Aldrich) in EBM-2 (Lonza) supplemented with 2% FBS and 50 μg/ml aprotinin (Sigma-Aldrich), and plated on top of a pre-coated fibrin layer (400 μl fibrinogen solution clotted with 1 U thrombin (Sigma-Aldrich) for 20 min at 37° C.). The second layer of fibrin was clotted for 1 hr at 37° C. NHDF cells (250,000 cells/well), in EBM-2 supplemented with 2% FBS and 25 ng/ml VEGF, with or without DAND5 (0, 15, 30 or 60 ng/ml), were then plated on top of the fibrin layers. Cultures were incubated at 37° C., 5% CO2.
To test whether DAND5 affects sprouting angiogenesis, human umbilical vein endothelial cells (HUVECs) were cultured in 3D fibrin gels and tube formation was induced with VEGF as previously described (2).

[2] = system: HUVECs; test: Endothelial cell proliferation (phospho-histone H3, neutral red, EdU flow cytometry); format: cell-based, human
Description: Sub-confluent HUVECs were cultured overnight in starvation medium (EBM2-1% FBS) in the presence or absence of 60 ng/ml DAND5, followed by VEGF stimulation for 1 hour. HUVECs were subjected with a pulse of 5-ethynyl-2′-deoxyuridine (EdU) for 1 hour, and flow cytometry analysis of EdU incorporation was performed as previously described.
The effects of DAND5 on EC proliferation were assessed by treating sub-confluent HUVECs with complete EC medium for 18 hours with DAND5. Cell mitosis was measured by evaluating the proportion phospho-histone H3 (PH3)-positive ECs following DAND5 treatment.

[3] = system: retinal vessels and photoreceptors; format: in vivo, mouse
Text: FIG. 4 is a panel with a schematic, images and bar graphs showing that chronic intravitreal injections of Dand5 inhibits developmental angiogenesis but is not detrimental to photoreceptor survival. FIG. 4A: Schematic representation of experimental set-up (B-E). Neonatal pups received intravitreal injections of either PBS, Dand5, Flt1-Fc on P1, P7 and P14. Retinas were harvested on P28. FIG. 4B: Isolectin B4 staining of flatmount retinas (P28) described in FIG. 3A. FIG. 4C: Quantification of branch points and vessel length in retinas described in FIG. 3B (n=6 mice/group; *p<0.05, **p<0.01). FIG. 4D: Immunofluorescent images of sectioned retinas described in FIG. 3A stained with antibodies against s-opsin and rhodopsin and DAPI (nuclei). FIG. 4E: Quantification of the number of nuclei present in the outer nuclear layer of retinas treated as described in (4A) (n=4, ns). Patients affected by ocular neovascular diseases such as retinopathy of prematurity (ROP) and wet AMD are typically treated with VEGF inhibitors to control pathological angiogenesis. […] Particularly, studies have shown that long-term treatment with VEGF inhibitors in mice leads to increased photoreceptor apoptosis and thinning of the neural retina (4). We therefore addressed the long-term effects of DAND5 on photoreceptors and the neural retina. […]

[4] = system: pathological retinal neovascularization; test: Oxygen-induced retinopathy (OIR); format: in vivo, mouse
Description: C57BL/6J mouse pups at postnatal day (P)7 and their fostering mothers (CD1, Charles River) were submitted to 75% oxygen in oxycycler chamber for 5 days. Pups were then returned to normoxia at P12 and administered 100 ng of recombinant human DAND5 intravitreally or similar volume of vehicle in the contralateral eye. Eyes were enucleated at P17 and processed for immunostaining. Ocular globes were initially fixed for 15 min in 4% paraformaldehyde (PFA). Retinas or choroids were collected after eyes dissection in PBS and blocked 1 h in PBS 3% BSA 0.1% Triton X-100TM. Fixation was prolonged in 1% PFA overnight for choroid extraction or eyes sectioning. Prior to sectioning, eyes were maintained in sucrose gradients (10-30%), cryo-preserved in a matrix gel and sliced in 14 μm sections on a cryostat (LeicaTM C[…]). Staining with either FITC-labeled isolectin GS 1B4 (Life technologies corporation), rhodamine phalloidin (Cedarlane Laboratories), phospho-histone H3 (Abcam), Collagen IV (Abcam) or cleaved caspase-3 (Cell Signaling) antibodies were performed on whole and/or sectioned retinas/choroids. Retinas and choroids were then mounted in fluoromount aqueous medium (Sigma-Aldrich). Quantitative analysis of tufts, vaso-obliterated or vessel areas were performed using imageJ/Swift_NVTM as previously described (1). Neovascular tuft formation was quantified by comparing the number of pixels in the affected areas with the total number of pixels in the retina. The avascular area in the retina was measured in the same way using an anti-DAND5/COCO polyclonal goat IgG antibody (AF3047, R&D systems). The effects of DAND5 on postnatal developmental angiogenesis led us to evaluate its effects on pathological angiogenesis by subjecting mouse pups to Oxygen-induced Retinopathy (OIR). Briefly, P7 pups were placed in 75% oxygen for 5 days, leading to vaso-obliteration of the retinal vascular plexus. At P12, pups were returned to room air, which stimulates retinal angiogenesis, and leads to the formation of a pathological vascular retinal network characterized by neovascular tufts (FIG. 5A).

B1: DAND5: human recombinant DAND5/COCO biologically active fragment produced in E. coli, predicted 18.2 kDa monomer, R&D systems 3047-CC-050 (protein)
chain: MRPEPQSPRPQSWAAANQTWALGPGALPPLVPASALGSWKAFLGLQKARQLGMGRLQRGQDEVAAVTLPLNPQEVIQGMCKAVPFVQVFSRPGCSAIRLRNHLCFGHCSSLYIPGSDPTPLVLCNSCMPARKRWAPVVLWCLTGSSASRRRVKISTMLIEGCHCSPKA
B1 was tested, and the VEGF-induced tube formation [1] was “efficiently suppressed VEGF-induced tube formation in a dose-dependent manner”, the VEGF-induced tube formation ([1]; listed as Dand5) was “inhibited tube formation in a dose dependent manner” and the vascular tube area ([1]; quantification of endothelial tubes, increasing concentrations of DAND5) was “significant reduction in vascular tube area with increasing concentrations”. For the same molecule, the EdU incorporation ([2]; HUVECs, 60 ng/ml DAND5 overnight, VEGF stimulation) was “reduced Edu incorporation in response to VEGF stimulation”, the “proliferation of cultured ECs, cell numbers by neutral red incorporation” value ([2]; HUVECs, 6 days) was “prevented the proliferation of cultured ECs” and the “phospho-histone H3 (PH3) staining, mitotic index” value ([2]; sub-confluent HUVECs, complete EC medium, 18 hours) was “significant decrease in PH3 staining”. The “photoreceptor apoptosis (cleaved-caspase 3 staining)” value ([3]; mouse, in vivo) was “did not reveal significant apoptosis”, the “retinal blood vessel formation / density of retinal vessels” value ([3]; repeated injections from P1 for 4 weeks) was “striking reduction in blood vessel formation” and the “effect on neovascularization compared with Flt1 Fc” value [4] was “stronger effect on neovascularization than Flt1 Fc”. The pathological neovascularization ([4]; 100 ng intravitreal at P12, retinas at P17) was “significantly reduced pathological neovascularization”, the “revascularization of the central part of the retina” value ([4]; injection at P12, P17) was “not affected” and the “amount and size of neovascular tufts” value ([4]; injection at P12, P17, compared to PBS) was “significantly reduced”.
